Laboratory results published in patent publication US20080318246A1, “Deeply quenched enzyme sensors” (The Albert Einstein College of Medicine of Yeshiva …, priority 2007, published 2008).
Blank lines part the entries; values can stand above or below the substance they belong to.

Biological target: 14-3-3τ (UniProt P27348)
Test: cell-based or functional assay

Sequence of 14-3-3τ (P27348 whole entry): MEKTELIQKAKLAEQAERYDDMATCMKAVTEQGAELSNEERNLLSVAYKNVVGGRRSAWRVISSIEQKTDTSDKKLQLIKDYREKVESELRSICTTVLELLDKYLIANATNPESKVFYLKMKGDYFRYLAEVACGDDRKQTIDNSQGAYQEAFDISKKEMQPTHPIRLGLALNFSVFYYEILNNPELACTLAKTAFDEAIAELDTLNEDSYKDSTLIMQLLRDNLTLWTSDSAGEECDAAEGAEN

% Fluorescence Enhancement on phosphorylation, no quenching dye: 51%
PKA-induced fluorescence change; Alizarin Red 5x: 1.59 fold
PKA-induced fluorescence change; Alizarin Red 10x: 1.38 fold
PKA-induced fluorescence change; Alizarin Red 25x: 1.37 fold
PKA-induced fluorescence change; Alizarin Red 50x: 1.3 fold
PKA-induced fluorescence change; Aniline Blue WS 5x: 1.85 fold
PKA-induced fluorescence change; Aniline Blue WS 10x: 2.48 fold
PKA-induced fluorescence change; Aniline Blue WS 25x: 2.52 fold
PKA-induced fluorescence change; Aniline Blue WS 50x: 1.83 fold
PKA-induced fluorescence change; Chlorazol Black E 5x: 2.26 fold
PKA-induced fluorescence change; Chlorazol Black E 10x: 2.84 fold
PKA-induced fluorescence change; Chlorazol Black E 25x: 0.6 fold
PKA-induced fluorescence change; Chlorazol Black E 50x: 0.35 fold
PKA-induced fluorescence change; Eriochrome Black T 5x: 1.46 fold
PKA-induced fluorescence change; Eriochrome Black T 10x: 1.42 fold
PKA-induced fluorescence change; Eriochrome Black T 25x: 1.13 fold
PKA-induced fluorescence change; Eriochrome Black T 50x: 3.71 fold
PKA-induced fluorescence change; Evans Blue 5x: 1.92 fold
PKA-induced fluorescence change; Evans Blue 10x: 1.37 fold
PKA-induced fluorescence change; Evans Blue 25x: 1.01 fold
PKA-induced fluorescence change; Evans Blue 50x: 0.94 fold
PKA-induced fluorescence change; Ponceau S 5x: 1.93 fold
PKA-induced fluorescence change; Ponceau S 10x: 1.92 fold
PKA-induced fluorescence change; Ponceau S 25x: 4.61 fold
PKA-induced fluorescence change; Ponceau S 50x: 6.57 fold
PKA-induced fluorescence change; Reactive Blue 2 5x: 1.99 fold
PKA-induced fluorescence change; Reactive Blue 2 10x: 2.08 fold
PKA-induced fluorescence change; Reactive Blue 2 25x: 5.66 fold
PKA-induced fluorescence change; Reactive Blue 2 50x: 6.3 fold
PKA-induced fluorescence change; Rose Bengal 5x: 2.58 fold
PKA-induced fluorescence change; Rose Bengal 10x: 2.87 fold
PKA-induced fluorescence change; Rose Bengal 25x: 1.58 fold
PKA-induced fluorescence change; Rose Bengal 50x: 0.72 fold
PKA-induced fluorescence change; Tartrazine 5x: 1.41 fold
PKA-induced fluorescence change; Tartrazine 10x: 1.61 fold
PKA-induced fluorescence change; Tartrazine 25x: 1.82 fold
PKA-induced fluorescence change; Tartrazine 50x: 2.51 fold
PKA-induced fluorescence change; Trypan Blue 5x: 2.2 fold
PKA-induced fluorescence change; Trypan Blue 10x: 2.81 fold
PKA-induced fluorescence change; Trypan Blue 25x: 5.11 fold
PKA-induced fluorescence change; Trypan Blue 50x: 6.03 fold
Phosphorylation-induced fluorescence fold-change; P2/Ponceau S (1:50), plate reader - bottom read: 7 fold
Phosphorylation-induced fluorescence fold-change; P2/Ponceau S (1:50), plate reader - top read: 15 fold
Phosphorylation-induced fluorescence fold-change; P2/Ponceau S (1:50), spectrofluorimeter: 21 fold
Substance: P2, Ac-GRTGRRDap(Pyr)SYP-amide, serine-phosphorylated by PKA in the assay (peptide)

% Fluorescence Enhancement on phosphorylation, no quenching dye: 19%
PKA-induced fluorescence change; Alizarin Red 5x: 1.28 fold
PKA-induced fluorescence change; Alizarin Red 10x: 1.21 fold
PKA-induced fluorescence change; Alizarin Red 25x: 1.17 fold
PKA-induced fluorescence change; Alizarin Red 50x: 1.05 fold
PKA-induced fluorescence change; Aniline Blue WS 5x: 1.5 fold
PKA-induced fluorescence change; Aniline Blue WS 10x: 2.17 fold
PKA-induced fluorescence change; Aniline Blue WS 25x: 3.79 fold
PKA-induced fluorescence change; Aniline Blue WS 50x: 0.99 fold
PKA-induced fluorescence change; Chlorazol Black E 5x: 1.79 fold
PKA-induced fluorescence change; Chlorazol Black E 10x: 0.71 fold
PKA-induced fluorescence change; Chlorazol Black E 25x: 0.92 fold
PKA-induced fluorescence change; Chlorazol Black E 50x: 0.25 fold
PKA-induced fluorescence change; Eriochrome Black T 5x: 1.1 fold
PKA-induced fluorescence change; Eriochrome Black T 10x: 1.02 fold
PKA-induced fluorescence change; Eriochrome Black T 25x: 0.58 fold
PKA-induced fluorescence change; Eriochrome Black T 50x: 0.31 fold
PKA-induced fluorescence change; Evans Blue 5x: 1.1 fold
PKA-induced fluorescence change; Evans Blue 10x: 1.06 fold
PKA-induced fluorescence change; Evans Blue 25x: 1.06 fold
PKA-induced fluorescence change; Evans Blue 50x: 0.99 fold
PKA-induced fluorescence change; Ponceau S 5x: 1.81 fold
PKA-induced fluorescence change; Ponceau S 10x: 2.26 fold
PKA-induced fluorescence change; Ponceau S 25x: 2.75 fold
PKA-induced fluorescence change; Ponceau S 50x: 2.88 fold
PKA-induced fluorescence change; Reactive Blue 2 5x: 1.48 fold
PKA-induced fluorescence change; Reactive Blue 2 10x: 2.29 fold
PKA-induced fluorescence change; Reactive Blue 2 25x: 3.56 fold
PKA-induced fluorescence change; Reactive Blue 2 50x: 1.68 fold
PKA-induced fluorescence change; Rose Bengal 5x: 2.7 fold
PKA-induced fluorescence change; Rose Bengal 10x: 1.98 fold
PKA-induced fluorescence change; Rose Bengal 25x: 1.13 fold
PKA-induced fluorescence change; Rose Bengal 50x: 0.97 fold
PKA-induced fluorescence change; Tartrazine 5x: 1.19 fold
PKA-induced fluorescence change; Tartrazine 10x: 1.34 fold
PKA-induced fluorescence change; Tartrazine 25x: 1.47 fold
PKA-induced fluorescence change; Tartrazine 50x: 1.02 fold
PKA-induced fluorescence change; Trypan Blue 5x: 2.23 fold
PKA-induced fluorescence change; Trypan Blue 10x: 2.72 fold
PKA-induced fluorescence change; Trypan Blue 25x: 1.91 fold
PKA-induced fluorescence change; Trypan Blue 50x: 1.6 fold
Substance: P3, Ac-GRTDap(Pyr)RRFSYP-amide, serine-phosphorylated by PKA in the assay (peptide)
